Measured values published in the Immune Epitope Database (IEDB).

Columns and labels:
Test in all cases: IEDB peptide-MHC binding, purified MHC/competitive/radioactivity; ≥ and ≤ were set here for values at or beyond the usual limits of such assays
Settings in all cases: source organism: Bordetella pertussis
HLA-B*53:01 = target: HLA-B*53:01
HLA-A*02:01 = target: HLA-A*02:01
HLA-B*44:03 = target: HLA-B*44:03
HLA-B*07:02 = target: HLA-B*07:02
HLA-B*57:01 = target: HLA-B*57:01

PGTPGDLLE
IC50 (HLA-B*53:01): ≥ 78.2 µM

FTHADGWFL
IC50 (HLA-A*02:01): 14 µM

LSDAGHEHD
IC50 (HLA-B*53:01): 36.5 µM

FDTMLGFAI
IC50 (HLA-B*53:01): 2.91 µM

ANEANALLW
IC50 (HLA-B*44:03): 9.19 µM

EVDGIIQEF
IC50 (HLA-B*44:03): 15.9 µM

PPRPVVAEK
IC50 (HLA-B*07:02): 69.6 µM

ILPILVLAL
IC50 (HLA-A*02:01): 0.0254 µM

VEASAITTY
IC50 (HLA-B*44:03): 1.97 µM

NPQTQLSNI
IC50 (HLA-B*53:01): 23.6 µM

YEDATFETY
IC50 (HLA-B*44:03): 3.73 µM

SSTPLGSLF
IC50 (HLA-B*57:01): ≥ 70.4 µM

PGTFTAGKD
IC50 (HLA-A*02:01): 62.5 µM
